Measurements as given in article doi:10.1101/2020.10.30.342212.
Where two headings read alike, the source gives them in different places.

Tests used:
[1] = molecular target: PrgL_(32-208)-His, soluble C-terminal NTF2-like domain of PrgL (Enterococcus faecalis (plasmid pCF10)); experiment: SEC-MALS
[2] = molecular target: PrgL_(32-208)-His, soluble C-terminal NTF2-like domain of PrgL (Enterococcus faecalis (plasmid pCF10)); experiment: SEC-MALS; remark: listed apart in the source
[3] = molecular target: full-length PrgL-GFP (Enterococcus faecalis (plasmid pCF10)); experiment: SEC
[4] = molecular target: full-length PrgL-His (Enterococcus faecalis (plasmid pCF10)); experiment: cross-linking

PrgL_(32-208)-His, soluble C-terminal NTF2-like domain of PrgL (domain or fragment)
stoichiometry N [1]: 2 | stoichiometry N [2]: 10 to 12

full-length PrgL-GFP (natural protein)
stoichiometry N [3]: 2

full-length PrgL-His (natural protein)
stoichiometry N [4]: 2
